The assay deals with T1, Recombinant human PDZD8 (1,28-) - FLAG (human, UniProt Q8NEN9 1-1154, (1, 28-)).
T1 sequence (looked up): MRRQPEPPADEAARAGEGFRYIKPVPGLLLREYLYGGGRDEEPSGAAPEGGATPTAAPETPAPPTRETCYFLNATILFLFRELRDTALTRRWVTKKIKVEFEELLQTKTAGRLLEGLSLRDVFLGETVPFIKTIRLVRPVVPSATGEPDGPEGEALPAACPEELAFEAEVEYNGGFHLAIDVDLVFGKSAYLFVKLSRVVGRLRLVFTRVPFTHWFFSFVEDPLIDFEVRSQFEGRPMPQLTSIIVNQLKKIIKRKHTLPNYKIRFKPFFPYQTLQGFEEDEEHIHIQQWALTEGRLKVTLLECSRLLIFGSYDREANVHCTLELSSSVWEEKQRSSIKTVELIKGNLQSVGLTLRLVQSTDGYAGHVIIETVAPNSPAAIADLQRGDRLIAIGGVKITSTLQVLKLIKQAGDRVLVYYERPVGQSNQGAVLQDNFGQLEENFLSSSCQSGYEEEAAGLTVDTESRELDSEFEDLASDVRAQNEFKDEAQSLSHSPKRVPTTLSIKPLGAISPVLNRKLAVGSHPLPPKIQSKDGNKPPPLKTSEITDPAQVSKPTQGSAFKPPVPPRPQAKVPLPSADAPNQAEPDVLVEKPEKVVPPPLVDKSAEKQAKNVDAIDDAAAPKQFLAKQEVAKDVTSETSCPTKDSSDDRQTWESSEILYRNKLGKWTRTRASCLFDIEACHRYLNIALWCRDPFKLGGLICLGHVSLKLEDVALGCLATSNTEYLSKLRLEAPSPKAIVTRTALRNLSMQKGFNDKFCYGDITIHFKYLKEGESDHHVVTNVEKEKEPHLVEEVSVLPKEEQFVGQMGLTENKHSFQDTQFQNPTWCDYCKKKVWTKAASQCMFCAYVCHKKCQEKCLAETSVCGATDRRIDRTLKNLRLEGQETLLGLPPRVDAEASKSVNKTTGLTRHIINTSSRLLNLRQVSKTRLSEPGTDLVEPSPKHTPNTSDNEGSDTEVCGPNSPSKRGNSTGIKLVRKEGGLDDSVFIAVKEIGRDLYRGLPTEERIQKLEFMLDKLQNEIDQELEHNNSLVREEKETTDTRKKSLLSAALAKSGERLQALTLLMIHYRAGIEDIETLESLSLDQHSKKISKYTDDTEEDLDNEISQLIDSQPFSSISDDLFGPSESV
Nature of the assay: SPR. In general terms: SPR reads the build-up and loss of mass on a sensor chip optically.

B1: Recombinant human FKBP8 (1-380) - Histag (domain or fragment, UniProt Q14318 1-380, looked up)
chain: MASCAEPSEPSAPLPAGVPPLEDFEVLDGVEDAEGEEEEEEEEEEEDDLSELPPLEDMGQPPAEEAEQPGALAREFLAAMEPEPAPAPAPEEWLDILGNGLLRKKTLVPGPPGSSRPVKGQVVTVHLQTSLENGTRVQEEPELVFTLGDCDVIQALDLSVPLMDVGETAMVTADSKYCYGPQGRSPYIPPHAALCLEVTLKTAVDGPDLEMLTGQERVALANRKRECGNAHYQRADFVLAANSYDLAIKAITSSAKVDMTFEEEAQLLQLKVKCLNNLAASQLKLDHYRAALRSCSLVLEHQPDNIKALFRKGKVLAQQGEYSEAIPILRAALKLEPSNKTIHAELSKLVKKHAAQRSTETALYRKMLGNPSRLPAKCPG
As a reminder, the Kd is the equilibrium constant for the complex coming apart. B1: the Kd is 142 µM.

Values taken from article doi:10.1101/2023.08.22.554218 (bioRxiv, 2023).
